The labels stand for the following.
B1: KIAA0774 (parent)
chain: FEDEVKRLGWQQQAELQELEERLQ
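Also: lentivirally expressed fusions sorted by FACS into six bins by GFP to DsRed ratio, PSI derived from sequencing read proportions per bin multiplied by bin number.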

The variants in this data set derive from B1. Description: protein stability index of a GFP-peptide fusion (GPS, HEK-293T) (PSI 1-6); higher = more stable. The conditions noted are these: c terminus: a fixed tail appended.
In the case of FEDEVKRLGWPQQAELQELEERLQ, the protein stability index was determined as 4.57. To FEDEVKRLGWRQQAELQELEERLQ belongs 4.44.

In the case of FEDEVKRLGWWQQAELQELEERLQ, the protein stability index is 4.16. Then FEDEVKRLGWMQQAELQELEERLQ, with 3.79; and FEDEVKRLGWLQQAELQELEERLQ, with 4.46; and FEDEVKRLGWIQQAELQELEERLQ, with 3.88. Then FEDEVKRLGWQQQAELQELNERLQ, with 4.32; and FEDEVKRLGWQQQAELQELIERLQ, with 3.74; and FEDEVKRLGWQQQAELQELMERLQ, with 3.81. To FEDEVKRLGWQQQAELQELYERLQ belongs 3.71; to FEDEVKRLGWQQQAELQELHERLQ, 4.29; to FEDEVKRLGWQQQAELQELVERLQ, 3.49. With FEDEVKRLGWQQQAELQECEERLQ, the protein stability index is 4.43. Then FEDEVKRLGWQQQAELQEIEERLQ, with 4.27; and FEDEVKRLGWQQQAELQEEEERLQ, with 5.22. To FEDEVKRLGWQQQAELQEGEERLQ belongs 5.4; to FEDEVKRLGWQQQAELQEDEERLQ, 5.22; to FEDEVKRLGWQQQAELQEKEERLQ, 3.24. As for FEDEVKRLGWQQQAELQEAEERLQ, the protein stability index worked out at 3.48. For the variant FEDEVKRLGWQQQAELQEQEERLQ, the protein stability index stood at 4.17.

With FEDEVKRLGWQQQAELQEYEERLQ, the protein stability index worked out at 4.14. To FEDEVKRLGWQQQAELQENEERLQ belongs 5.2; to FEDEVKRLGWQQQAELQMLEERLQ, 2.89. Then FEDEVKRLGWQQQAELQYLEERLQ, with 2.69; and FEDEVKRLGWQQQAELQLLEERLQ, with 2.63. For FEDEVKRLGWQQQAELQILEERLQ, the protein stability index was determined as 1.74. Then FEDEVKRLGWQQQAELQPLEERLQ, with 4.72. For the variant FEDEVKRLGWQQQAELQTLEERLQ, the protein stability index worked out at 4.47. With FEDEVKRLGWQQQAELQSLEERLQ, the protein stability index was 4.7. As for FEDEVKRLGWQQQAELQCLEERLQ, the protein stability index was 3.17.

As to FEDEVKRLGWQQKAELQELEERLQ, the protein stability index turned out to be 3.77. For the variant FEDEVKRLGWQQYAELQELEERLQ, the protein stability index was found to be 3.58. Then FEDEVKRLGWQQDAELQELEERLQ, with 4.76; and FEDEVKRLGWQQWAELQELEERLQ, with 3.67; and FEDEVKRLGWQQLAELQELEERLQ, with 3.5. As for FEDEVKRLGWQQCAELQELEERLQ, the protein stability index stood at 4.83.

Turning to FEDEVKRLGWQQQAELQELEERLN, the protein stability index worked out at 4.48.

As to FEDEVKRLGWQQQAELQELEERLA, the protein stability index was 3.81. With FEDEVKRLGWQQQAELQELEERLG, the protein stability index turned out to be 4.62. To FEDEVKRLGWQQQAELQELEERLM belongs 3.92. Then FEDEVKRLGWQQQAELQELEERLS, with 4.01; and FEDEVKRLGWQQQAELQELEERLV, with 3.12; and FEDEVKRLGWQQQAELQELEERLR, with 4.14. To FEDEVKRLGWQQQAELQELEERLH belongs 3.93. As for FEDEVKRLGWQQQAELQELEERLT, the protein stability index amounted to 3.99. To FEDEVKRLGWQQQAYLQELEERLQ belongs 2.65; to FEDEVKRLGWQQQAWLQELEERLQ, 2.85; to FEDEVKRLGWQQQAVLQELEERLQ, 3.65. In the case of FEDEVKRLGWQQQAGLQELEERLQ, the protein stability index was found to be 3.85.

For FEDEVKRLGWQQQACLQELEERLQ, the protein stability index was found to be 3.39. In the case of FEDEVKRLGWQQQAFLQELEERLQ, the protein stability index came to 2.42.

For the variant FEDEVKRLGWQQQAPLQELEERLQ, the protein stability index was determined as 3.71.

As for FEDEVKRLGWQQQASLQELEERLQ, the protein stability index was found to be 4.05. Turning to FEDEVKRLGWQQQAMLQELEERLQ, the protein stability index was 3.32. Then FEDEVKRLGWQQQAKLQELEERLQ, with 3.2; and FEDEVKRLGSQQQAELQELEERLQ, with 4.84; and FEDEVKRLGYQQQAELQELEERLQ, with 4.86.

In the case of FEDEVKRLGFQQQAELQELEERLQ, the protein stability index was 4.41. Then FEDEVKRLGHQQQAELQELEERLQ, with 5.09; and FEDEVKRLGQQQQAELQELEERLQ, with 5.71.

On to FEDEVKRLGVQQQAELQELEERLQ, for which the protein stability index was 4.69. For FEDEVKRLGNQQQAELQELEERLQ, the protein stability index was 5.54. Take FEDEVKRLGLQQQAELQELEERLQ: the protein stability index was determined as 5.35. Then FEDEVKRLGWQQQRELQELEERLQ, with 4.7; and FEDEVKRLGWQQQGELQELEERLQ, with 5.26.

Consider FEDEVKRLGWQQQSELQELEERLQ, for which the protein stability index came out at 4.44. To FEDEVKRLGWQQQHELQELEERLQ belongs 4.27; to FEDEVKRLGWQQQTELQELEERLQ, 2.53. Regarding FEDEVKRLGWQQQWELQELEERLQ, the protein stability index worked out at 2.53. Then FEDEVKRLGWQQQYELQELEERLQ, with 2.29; and FEDEVKRLGWQQQQELQELEERLQ, with 4.61; and FEDEVKRLGWQQQNELQELEERLQ, with 4.64. Then FEDEVKRLGWQQQDELQELEERLQ, with 5.2; and FEDEVKRLGWQQQKELQELEERLQ, with 5.32.

For the variant FEDEVKRLGWQQQMELQELEERLQ, the protein stability index turned out to be 4.37.

As to FEDEVKRLGWQQQFELQELEERLQ, the protein stability index worked out at 2.63. Then FEDEVKRLGWQQQAELLELEERLQ, with 4.54. With FEDEVKRLGWQQQAELRELEERLQ, the protein stability index is 4.71. In the case of FEDEVKRLGWQQQAELMELEERLQ, the protein stability index amounted to 4.57. Regarding FEDEVKRLGWQQQAELIELEERLQ, the protein stability index worked out at 4.25. To FEDEVKRLGWQQQAELHELEERLQ belongs 4.34; to FEDEVKRLGWQQQAELYELEERLQ, 3.26; to FEDEVKRLGWQQQAELDELEERLQ, 3.55. Then FEDEVKRLGWQQQAELSELEERLQ, with 4.75; and FEDEVKRLGWQQQAELWELEERLQ, with 2.31. To FEDEVKRLGWQQQAELKELEERLQ belongs 4.88; to FEDECKRLGWQQQAELQELEERLQ, 3.6; to FEDETKRLGWQQQAELQELEERLQ, 3.5. Take FEDEYKRLGWQQQAELQELEERLQ: the protein stability index was found to be 4.24. To FEDEHKRLGWQQQAELQELEERLQ belongs 4.15; to FEDEAKRLGWQQQAELQELEERLQ, 3.86. For the variant FEDEVKRLRWQQQAELQELEERLQ, the protein stability index was found to be 3.75. To FEDEVKRLLWQQQAELQELEERLQ belongs 3.15.

Consider FEDEVKRLKWQQQAELQELEERLQ, for which the protein stability index stood at 3.23.

The values are drawn from the supplement of paper PMC10567573.
